Laboratory results published in article PMC5748838, “SUMO chain formation relies on the amino-terminal region of SUMO-conjugating enzyme and has dedicated substrates in plants” (Biochemical Journal, 2017).

Tests used:
Experiment in all cases: ITC; SCE at 60 µM in the cell (300 µl loaded), SUMO1-Flag-His at 600 µM in the syringe; 20 injections; 25°C; 20 mM Tris, 5 mM MgCl2, pH 7.4; MicroCal ITC 200
Settings in all cases: both partners purified
[1] = target: T1, Arabidopsis SUMO-conjugating enzyme SCE1, wild type (Arabidopsis, UniProt Q42551 1-160)
T1 construct: SUMO-conjugating enzyme SCE1, Arabidopsis thaliana, AT3G57870; also called SCE WT; WT SCE; source: MonoS ion exchange for ITC
T1 sequence (looked up): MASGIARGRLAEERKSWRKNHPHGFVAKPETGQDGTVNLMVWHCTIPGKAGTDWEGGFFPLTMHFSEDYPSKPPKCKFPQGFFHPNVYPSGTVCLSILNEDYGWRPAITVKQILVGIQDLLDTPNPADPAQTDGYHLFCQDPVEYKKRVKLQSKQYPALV

SCE K15R = target: T2, SCE K15R (Arabidopsis, UniProt Q42551 1-160, K15R)
T2 construct: SUMO-conjugating enzyme SCE1, Arabidopsis thaliana, AT3G57870, with K15R; also called SCE1 K15R; source: MonoS ion exchange for ITC
T2 sequence (looked up): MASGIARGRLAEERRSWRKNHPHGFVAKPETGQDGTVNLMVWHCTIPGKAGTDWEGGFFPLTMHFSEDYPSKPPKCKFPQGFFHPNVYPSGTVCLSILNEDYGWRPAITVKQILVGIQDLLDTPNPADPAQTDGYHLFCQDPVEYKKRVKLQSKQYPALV

SCE K28R = target: T3, SCE K28R (Arabidopsis, UniProt Q42551 1-160, K28R)
T3 construct: SUMO-conjugating enzyme SCE1, Arabidopsis thaliana, AT3G57870, with K28R; source: MonoS ion exchange for ITC
T3 sequence (looked up): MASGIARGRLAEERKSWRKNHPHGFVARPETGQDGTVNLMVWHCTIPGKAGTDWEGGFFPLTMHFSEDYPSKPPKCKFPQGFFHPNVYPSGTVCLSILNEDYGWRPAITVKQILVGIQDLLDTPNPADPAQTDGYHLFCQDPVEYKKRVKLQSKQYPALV

Kd [1]: 710 ± 230 µM
Kd (SCE K15R): 33 ± 17 µM
Kd (SCE K28R): 270 ± 330 µM
B1: SUMO1-Flag-His (natural protein, Arabidopsis, UniProt P55852 1-93, looked up)
chain: MSANQEEDKKPGDGGAHINLKVKGQDGNEVFFRIKRSTQLKKLMNAYCDRQSVDMNSIAFLFDGRRLRAEQTPDELDMEDGDEIDAMLHQTGG
notes: SUMO1 (small ubiquitin-related modifier 1), Arabidopsis; The SUMO preparations are conjugated in vitro without a protease, so the processed form ending in Gly-Gly is surmised; also called N-terminally tagged SUMO (Flag-His); source: purified (Ni2+ resin, then MonoQ ion exchange for ITC); not shown: Flag, N-terminal, kept; His, N-terminal, kept
